{
  "source": "paper PMC4689063",
  "target": "Sam68-6H (UniProt Q07666 1-443)",
  "sequence (Q07666 whole entry, the tested form may be a part)": "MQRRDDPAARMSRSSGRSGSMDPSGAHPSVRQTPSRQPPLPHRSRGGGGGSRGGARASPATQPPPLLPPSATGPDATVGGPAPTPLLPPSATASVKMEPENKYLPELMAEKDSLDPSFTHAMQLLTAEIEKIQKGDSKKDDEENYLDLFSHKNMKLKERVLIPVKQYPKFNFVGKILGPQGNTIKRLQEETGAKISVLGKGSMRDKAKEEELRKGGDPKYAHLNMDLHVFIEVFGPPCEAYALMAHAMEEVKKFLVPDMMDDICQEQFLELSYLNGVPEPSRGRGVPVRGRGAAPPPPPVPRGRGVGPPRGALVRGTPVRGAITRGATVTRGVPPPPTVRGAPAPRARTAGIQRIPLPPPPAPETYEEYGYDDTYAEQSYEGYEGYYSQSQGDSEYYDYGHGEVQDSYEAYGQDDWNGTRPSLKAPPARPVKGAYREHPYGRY",
  "assay": "EMSA",
  "conditions": "protein: recombinant; tags: 6xHis (pET30c+); chain copies: 2; label: 5' biotin; two UAAA motifs predicted unpaired",
  "data": [
    {"binder": "WT domain 4 probe (ssRNA) RNA: AAGGGGACCGGGGCUUCUAUAAAAGCGCCCGGUUUAAAAAGCUUCUAUGUCUGAAUAGGUGACCG", "values": [
      {"measurement": "apparent K (half saturation)", "result": "~3.16", "unit": "µM"}
    ]}
  ]
}
